Source: US20240261333A1, “NOVEL TARGETS FOR ENHANCING ANTI-TUMOR IMMUNITY” (THE BROAD INSTITUTE, INC., priority 2021, published 2024)

Columns and labels:
[1] = target: CALU (human) (UniProt O43852); assay: co-IP/MS, IgG control IP of N-FLAG B3GNT2 cell lysate
[2] = target: CASP14 (human) (UniProt P31944); assay: as above
[3] = target: CKAP4 (human) (UniProt Q07065); assay: as above
[4] = target: ERLIN1 (human) (UniProt O75477); assay: as above
[5] = target: ERLIN2 (human) (UniProt O94905); assay: as above
[6] = target: HSD17B12 (human) (UniProt Q53GQ0); assay: as above
[7] = target: IPO4 (human) (UniProt Q8TEX9); assay: as above
[8] = target: PDIA6 (human) (UniProt Q15084); assay: as above
[9] = target: PRDX1 (human) (UniProt Q06830); assay: as above
[10] = target: RPL12 (human) (UniProt P30050); assay: as above
[11] = target: RPL13A (human) (UniProt P40429); assay: as above
[12] = target: RPL23A (human) (UniProt P62750); assay: as above
[13] = target: RPL24 (human) (UniProt P83731); assay: as above
[14] = target: RPS5 (human) (UniProt P46782); assay: as above
[15] = target: RPS7 (human) (UniProt P62081); assay: as above
[16] = target: SQSTM1 (human) (UniProt Q13501); assay: as above
[17] = target: ARF4 (human) (UniProt P18085); assay: co-IP with anti-FLAG, mass spectrometry; lysate of cells with C-FLAG B3GNT2
[18] = target: ARHGEF2 (human) (UniProt Q92974); assay: as above
[19] = target: CCT7 (human) (UniProt Q99832); assay: as above
[20] = target: CTHRC1 (human) (UniProt Q96CG8); assay: as above
[21] = target: DNAJB11 (human) (UniProt Q9UBS4); assay: as above
[22] = target: EIF4A1 (human) (UniProt P60842); assay: as above
[23] = target: EPRS (human) (UniProt P07814); assay: as above
[24] = target: GALNT2 (human) (UniProt Q10471); assay: as above
[25] = target: GANAB (human) (UniProt Q14697); assay: as above
[26] = target: MAGT1 (human) (UniProt Q9H0U3); assay: as above
[27] = target: PIGR (human) (UniProt P01833); assay: as above
[28] = target: RARS (human) (UniProt P54136); assay: as above
[29] = target: RPL26 (human) (UniProt P61254); assay: as above
[30] = target: RPL32 (human) (UniProt P62910); assay: as above
[31] = target: RRP12 (human) (UniProt Q5JTH9); assay: as above
[32] = target: SDF4 (human) (UniProt Q9BRK5); assay: as above
[33] = target: SEL1L (human) (UniProt Q9UBV2); assay: as above
[34] = target: SLC27A4 (human) (UniProt Q6P1M0); assay: as above
[35] = target: SPRR1A (human) (UniProt P35321); assay: as above
[36] = target: TOR1AIP2 (human) (UniProt Q8NFQ8); assay: as above
[37] = target: ZC3HAV1 (human) (UniProt Q7Z2W4); assay: as above

Sequence of ERLIN2 (human) (O94905 whole entry): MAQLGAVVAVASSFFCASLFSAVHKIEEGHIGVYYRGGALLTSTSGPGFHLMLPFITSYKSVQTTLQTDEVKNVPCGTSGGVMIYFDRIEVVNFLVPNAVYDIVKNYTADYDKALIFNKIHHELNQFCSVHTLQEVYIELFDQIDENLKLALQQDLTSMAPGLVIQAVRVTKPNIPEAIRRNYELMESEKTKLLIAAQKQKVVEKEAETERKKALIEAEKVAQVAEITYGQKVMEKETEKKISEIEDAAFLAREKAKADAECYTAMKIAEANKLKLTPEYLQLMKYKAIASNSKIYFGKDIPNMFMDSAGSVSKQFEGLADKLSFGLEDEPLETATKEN
Sequence of EPRS (human) (P07814 whole entry): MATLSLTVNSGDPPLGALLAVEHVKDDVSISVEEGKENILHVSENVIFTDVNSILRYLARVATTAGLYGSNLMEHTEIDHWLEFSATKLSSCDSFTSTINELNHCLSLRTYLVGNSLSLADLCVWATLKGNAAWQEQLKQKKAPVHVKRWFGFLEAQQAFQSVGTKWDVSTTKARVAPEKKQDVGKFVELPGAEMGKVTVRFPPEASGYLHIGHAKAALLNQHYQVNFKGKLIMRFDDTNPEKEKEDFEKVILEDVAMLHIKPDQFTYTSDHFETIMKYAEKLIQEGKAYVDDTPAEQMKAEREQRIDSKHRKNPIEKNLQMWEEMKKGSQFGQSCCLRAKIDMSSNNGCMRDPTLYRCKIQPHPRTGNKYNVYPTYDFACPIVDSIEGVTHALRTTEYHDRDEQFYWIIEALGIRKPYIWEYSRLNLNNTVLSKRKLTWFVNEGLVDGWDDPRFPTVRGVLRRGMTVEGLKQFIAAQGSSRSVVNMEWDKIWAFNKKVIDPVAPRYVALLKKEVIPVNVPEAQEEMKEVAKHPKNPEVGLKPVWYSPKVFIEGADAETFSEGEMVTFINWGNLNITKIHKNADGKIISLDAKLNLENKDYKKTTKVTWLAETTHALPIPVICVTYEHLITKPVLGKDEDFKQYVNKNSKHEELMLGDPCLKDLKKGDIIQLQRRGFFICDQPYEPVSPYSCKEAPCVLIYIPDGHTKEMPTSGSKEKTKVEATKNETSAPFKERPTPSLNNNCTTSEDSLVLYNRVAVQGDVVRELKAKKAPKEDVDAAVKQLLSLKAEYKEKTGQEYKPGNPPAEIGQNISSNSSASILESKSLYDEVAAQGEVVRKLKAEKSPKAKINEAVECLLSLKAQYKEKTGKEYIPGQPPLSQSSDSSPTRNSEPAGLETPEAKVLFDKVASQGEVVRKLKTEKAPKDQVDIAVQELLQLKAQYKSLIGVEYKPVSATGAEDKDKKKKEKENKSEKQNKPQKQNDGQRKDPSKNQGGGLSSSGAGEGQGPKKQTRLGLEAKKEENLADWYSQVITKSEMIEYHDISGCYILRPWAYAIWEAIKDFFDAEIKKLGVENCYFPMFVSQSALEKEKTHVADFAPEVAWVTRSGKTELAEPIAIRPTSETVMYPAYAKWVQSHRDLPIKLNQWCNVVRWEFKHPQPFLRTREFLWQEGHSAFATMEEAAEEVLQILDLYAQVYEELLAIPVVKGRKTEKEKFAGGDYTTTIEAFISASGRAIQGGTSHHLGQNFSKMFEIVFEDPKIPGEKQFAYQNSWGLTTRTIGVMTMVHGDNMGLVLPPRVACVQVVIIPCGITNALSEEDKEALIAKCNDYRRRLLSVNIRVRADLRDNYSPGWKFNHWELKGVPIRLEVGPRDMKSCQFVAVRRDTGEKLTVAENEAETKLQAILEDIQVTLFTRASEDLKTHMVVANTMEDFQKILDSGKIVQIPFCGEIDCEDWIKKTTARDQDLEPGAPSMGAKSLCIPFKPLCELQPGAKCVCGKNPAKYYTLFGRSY
Sequence of ERLIN1 (human) (O75477 whole entry): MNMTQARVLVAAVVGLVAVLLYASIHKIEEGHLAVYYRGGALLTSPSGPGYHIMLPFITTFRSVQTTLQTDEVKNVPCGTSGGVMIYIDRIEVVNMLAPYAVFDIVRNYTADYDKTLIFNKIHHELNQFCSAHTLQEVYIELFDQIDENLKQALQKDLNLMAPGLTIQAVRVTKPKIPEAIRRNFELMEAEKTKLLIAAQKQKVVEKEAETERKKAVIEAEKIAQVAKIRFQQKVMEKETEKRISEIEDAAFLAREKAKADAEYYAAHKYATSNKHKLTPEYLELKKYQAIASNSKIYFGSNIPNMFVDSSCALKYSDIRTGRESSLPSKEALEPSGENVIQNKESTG
Sequence of SDF4 (human) (Q9BRK5 37-362 limits assumed): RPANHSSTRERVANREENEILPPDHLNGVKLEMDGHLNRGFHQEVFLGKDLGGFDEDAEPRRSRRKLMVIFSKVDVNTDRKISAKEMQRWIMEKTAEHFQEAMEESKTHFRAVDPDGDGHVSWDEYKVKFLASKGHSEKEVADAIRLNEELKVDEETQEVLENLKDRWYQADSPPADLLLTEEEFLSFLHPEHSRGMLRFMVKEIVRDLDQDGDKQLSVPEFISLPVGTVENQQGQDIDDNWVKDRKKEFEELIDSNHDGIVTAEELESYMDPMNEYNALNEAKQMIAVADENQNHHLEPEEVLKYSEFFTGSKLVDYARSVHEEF
Sequence of PIGR (human) (P01833 19-764 limits assumed): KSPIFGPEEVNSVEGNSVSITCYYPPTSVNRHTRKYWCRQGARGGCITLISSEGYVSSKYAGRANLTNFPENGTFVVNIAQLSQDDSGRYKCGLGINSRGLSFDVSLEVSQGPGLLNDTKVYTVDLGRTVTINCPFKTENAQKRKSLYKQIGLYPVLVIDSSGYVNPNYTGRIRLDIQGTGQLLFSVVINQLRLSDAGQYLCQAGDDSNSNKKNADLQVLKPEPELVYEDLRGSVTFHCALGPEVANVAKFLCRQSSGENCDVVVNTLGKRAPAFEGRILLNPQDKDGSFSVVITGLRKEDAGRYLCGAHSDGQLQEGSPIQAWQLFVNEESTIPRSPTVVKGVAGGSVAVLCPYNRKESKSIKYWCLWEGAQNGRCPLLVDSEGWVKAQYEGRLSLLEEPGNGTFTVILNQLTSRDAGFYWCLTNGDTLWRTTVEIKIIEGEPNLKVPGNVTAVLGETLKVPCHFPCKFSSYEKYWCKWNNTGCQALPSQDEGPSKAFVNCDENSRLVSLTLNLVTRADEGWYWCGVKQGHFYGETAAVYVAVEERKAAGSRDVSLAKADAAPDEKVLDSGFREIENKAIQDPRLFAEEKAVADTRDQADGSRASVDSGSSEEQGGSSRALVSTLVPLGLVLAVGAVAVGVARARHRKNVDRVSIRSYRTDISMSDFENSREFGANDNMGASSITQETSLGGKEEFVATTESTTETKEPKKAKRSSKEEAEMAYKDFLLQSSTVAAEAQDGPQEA
Sequence of TOR1AIP2 (human) (Q8NFQ8 2-470 limits assumed): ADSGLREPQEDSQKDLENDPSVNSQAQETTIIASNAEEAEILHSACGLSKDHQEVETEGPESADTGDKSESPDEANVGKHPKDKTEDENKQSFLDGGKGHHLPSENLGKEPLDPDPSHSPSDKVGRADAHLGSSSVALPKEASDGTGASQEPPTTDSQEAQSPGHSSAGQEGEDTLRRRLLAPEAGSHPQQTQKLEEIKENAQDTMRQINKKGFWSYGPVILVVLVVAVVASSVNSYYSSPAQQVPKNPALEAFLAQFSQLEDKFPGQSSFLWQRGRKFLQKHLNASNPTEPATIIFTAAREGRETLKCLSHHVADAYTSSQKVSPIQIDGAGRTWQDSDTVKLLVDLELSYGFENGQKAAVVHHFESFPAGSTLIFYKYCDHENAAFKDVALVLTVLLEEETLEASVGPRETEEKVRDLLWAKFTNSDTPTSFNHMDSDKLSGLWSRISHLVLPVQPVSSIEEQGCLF
Sequence of HSD17B12 (human) (Q53GQ0 whole entry): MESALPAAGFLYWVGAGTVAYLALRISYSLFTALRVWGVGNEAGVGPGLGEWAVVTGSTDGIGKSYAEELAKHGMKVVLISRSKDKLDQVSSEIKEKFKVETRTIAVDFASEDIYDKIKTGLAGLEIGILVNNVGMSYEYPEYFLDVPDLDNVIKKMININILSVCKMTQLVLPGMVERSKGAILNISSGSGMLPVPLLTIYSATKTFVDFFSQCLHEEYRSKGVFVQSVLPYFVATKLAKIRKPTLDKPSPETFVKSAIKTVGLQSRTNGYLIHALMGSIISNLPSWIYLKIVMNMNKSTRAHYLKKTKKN
Sequence of CALU (human) (O43852 20-315 limits assumed): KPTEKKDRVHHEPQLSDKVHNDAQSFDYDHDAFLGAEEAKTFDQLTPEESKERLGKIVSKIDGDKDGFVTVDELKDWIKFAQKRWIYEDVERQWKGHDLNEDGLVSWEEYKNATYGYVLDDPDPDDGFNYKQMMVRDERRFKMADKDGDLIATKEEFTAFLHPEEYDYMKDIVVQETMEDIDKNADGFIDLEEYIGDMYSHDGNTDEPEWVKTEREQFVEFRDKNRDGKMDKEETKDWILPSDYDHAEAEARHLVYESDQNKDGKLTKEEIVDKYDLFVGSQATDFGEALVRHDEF
Sequence of CASP14 (human) (P31944 whole entry): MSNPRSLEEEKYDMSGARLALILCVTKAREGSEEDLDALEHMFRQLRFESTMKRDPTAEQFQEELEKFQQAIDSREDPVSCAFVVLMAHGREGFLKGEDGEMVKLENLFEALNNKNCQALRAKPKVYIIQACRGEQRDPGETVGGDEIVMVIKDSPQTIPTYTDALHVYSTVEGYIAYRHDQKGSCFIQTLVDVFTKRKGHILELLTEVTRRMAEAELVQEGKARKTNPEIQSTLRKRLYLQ
Sequence of SPRR1A (human) (P35321 whole entry): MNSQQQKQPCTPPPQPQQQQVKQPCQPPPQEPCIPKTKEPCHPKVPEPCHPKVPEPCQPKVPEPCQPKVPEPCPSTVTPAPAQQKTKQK
Sequence of PRDX1 (human) (Q06830 2-199 limits assumed): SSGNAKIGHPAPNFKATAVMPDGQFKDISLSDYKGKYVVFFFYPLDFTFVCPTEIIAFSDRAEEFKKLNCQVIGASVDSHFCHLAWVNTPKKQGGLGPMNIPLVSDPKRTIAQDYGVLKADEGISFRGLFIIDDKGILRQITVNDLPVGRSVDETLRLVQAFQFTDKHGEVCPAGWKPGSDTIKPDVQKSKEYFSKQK

Work on “IgG control (Millipore Sigma 12-371) (antibody)” yielded a co-IP mass spectrometry count [1] of 0, a co-IP mass spectrometry count [2] of 3 and a co-IP mass spectrometry count [3] of 0. It also gave a co-IP mass spectrometry count [4] of 0, a co-IP mass spectrometry count [5] of 0 and a co-IP mass spectrometry count [6] of 0. It also gave a co-IP mass spectrometry count [7] of 0, a co-IP mass spectrometry count [8] of 0 and a co-IP mass spectrometry count [9] of 5. It also gave a co-IP mass spectrometry count [10] of 4, a co-IP mass spectrometry count [11] of 0 and a co-IP mass spectrometry count [12] of 3. For the same substance, the co-IP mass spectrometry count [13] was 4, the co-IP mass spectrometry count [14] was 3 and the co-IP mass spectrometry count [15] was 2. For the same substance, the co-IP mass spectrometry count [16] was 0.

Substance “C-terminal FLAG tagged B3GNT2 (from UniProt Q9NY97 1-397) (enzyme)” has a co-IP mass spectrometry count [17] of 4, a co-IP mass spectrometry count [18] of 2 and a co-IP mass spectrometry count [19] of 2. For the same substance, the co-IP mass spectrometry count [20] was 2, the co-IP mass spectrometry count [21] was 4 and the co-IP mass spectrometry count [22] was 6. For the same substance, the co-IP mass spectrometry count [23] was 4, the co-IP mass spectrometry count [24] was 2 and the co-IP mass spectrometry count [25] was 8. The co-IP mass spectrometry count [26] was 2, the co-IP mass spectrometry count [27] was 5 and the co-IP mass spectrometry count [28] was 2. The co-IP mass spectrometry count [29] was 12, the co-IP mass spectrometry count [30] was 7 and the co-IP mass spectrometry count [31] was 2. The co-IP mass spectrometry count [32] was 7, the co-IP mass spectrometry count [33] was 5 and the co-IP mass spectrometry count [34] was 2. The co-IP mass spectrometry count [35] was 3, the co-IP mass spectrometry count [36] was 2 and the co-IP mass spectrometry count [37] was 4.
